Ends that are not written are not given here. * marks the point of attachment. Biotin = O=C1N[C@H]2[C@H](CS[C@H]2CCCCC(=O)*)N1

The values below come from article PMC4342579, “A new cytoplasmic interaction between junctin and ryanodine receptor Ca^2+ release channels” (Journal of Cell Science, 2015).

For test [1], the target named is RyR1 purified from rabbit skeletal muscle (rabbit) (UniProt P11716).
Test [2] shares this target. This is another data set of the same source.
Test [3] concerns the target T1, RyR1 purified from rabbit skeletal muscle (rabbit, UniProt P11716 1-5037).
T1 construct: ryanodine receptor 1 (RyR1), rabbit skeletal muscle, purified from SR vesicles; Purification as in Wei et al., 2009b; also called skeletal RyR1; purified RyR1; source: purified from rabbit skeletal SR vesicles (sucrose gradient)
Description: pull-down; affinity chromatography: biotinylated canine KEKE peptide on streptavidin–agarose, purified RyR1 or RyR2. Conditions: both partners purified.

The target in test [4] is T1, RyR1 purified from rabbit skeletal …. Description: cell-based or functional assay.
Test [5] deals with T2, full length recombinant mouse RyR2 (mouse, UniProt E9Q401 1-4966).
T2 construct: ryanodine receptor 2 (RyR2), mouse, recombinant; Cell line of Koop et al., 2008; also called recombinant RyR2
The test is described as follows: pull-down; NeutrAvidin–agarose affinity chromatography: biotinylated Njun or scrambled Njun on the agarose, recombinant RyR or RyR1 fragments (isolated from HEK293) incubated overnight at 4°C in PBS plus 0.1% SDS; RyR detected with 34C or anti-GFP antibody. Conditions: both partners purified.

RyR1 purified from rabbit skeletal muscle (rabbit), sequence (P11716 whole entry): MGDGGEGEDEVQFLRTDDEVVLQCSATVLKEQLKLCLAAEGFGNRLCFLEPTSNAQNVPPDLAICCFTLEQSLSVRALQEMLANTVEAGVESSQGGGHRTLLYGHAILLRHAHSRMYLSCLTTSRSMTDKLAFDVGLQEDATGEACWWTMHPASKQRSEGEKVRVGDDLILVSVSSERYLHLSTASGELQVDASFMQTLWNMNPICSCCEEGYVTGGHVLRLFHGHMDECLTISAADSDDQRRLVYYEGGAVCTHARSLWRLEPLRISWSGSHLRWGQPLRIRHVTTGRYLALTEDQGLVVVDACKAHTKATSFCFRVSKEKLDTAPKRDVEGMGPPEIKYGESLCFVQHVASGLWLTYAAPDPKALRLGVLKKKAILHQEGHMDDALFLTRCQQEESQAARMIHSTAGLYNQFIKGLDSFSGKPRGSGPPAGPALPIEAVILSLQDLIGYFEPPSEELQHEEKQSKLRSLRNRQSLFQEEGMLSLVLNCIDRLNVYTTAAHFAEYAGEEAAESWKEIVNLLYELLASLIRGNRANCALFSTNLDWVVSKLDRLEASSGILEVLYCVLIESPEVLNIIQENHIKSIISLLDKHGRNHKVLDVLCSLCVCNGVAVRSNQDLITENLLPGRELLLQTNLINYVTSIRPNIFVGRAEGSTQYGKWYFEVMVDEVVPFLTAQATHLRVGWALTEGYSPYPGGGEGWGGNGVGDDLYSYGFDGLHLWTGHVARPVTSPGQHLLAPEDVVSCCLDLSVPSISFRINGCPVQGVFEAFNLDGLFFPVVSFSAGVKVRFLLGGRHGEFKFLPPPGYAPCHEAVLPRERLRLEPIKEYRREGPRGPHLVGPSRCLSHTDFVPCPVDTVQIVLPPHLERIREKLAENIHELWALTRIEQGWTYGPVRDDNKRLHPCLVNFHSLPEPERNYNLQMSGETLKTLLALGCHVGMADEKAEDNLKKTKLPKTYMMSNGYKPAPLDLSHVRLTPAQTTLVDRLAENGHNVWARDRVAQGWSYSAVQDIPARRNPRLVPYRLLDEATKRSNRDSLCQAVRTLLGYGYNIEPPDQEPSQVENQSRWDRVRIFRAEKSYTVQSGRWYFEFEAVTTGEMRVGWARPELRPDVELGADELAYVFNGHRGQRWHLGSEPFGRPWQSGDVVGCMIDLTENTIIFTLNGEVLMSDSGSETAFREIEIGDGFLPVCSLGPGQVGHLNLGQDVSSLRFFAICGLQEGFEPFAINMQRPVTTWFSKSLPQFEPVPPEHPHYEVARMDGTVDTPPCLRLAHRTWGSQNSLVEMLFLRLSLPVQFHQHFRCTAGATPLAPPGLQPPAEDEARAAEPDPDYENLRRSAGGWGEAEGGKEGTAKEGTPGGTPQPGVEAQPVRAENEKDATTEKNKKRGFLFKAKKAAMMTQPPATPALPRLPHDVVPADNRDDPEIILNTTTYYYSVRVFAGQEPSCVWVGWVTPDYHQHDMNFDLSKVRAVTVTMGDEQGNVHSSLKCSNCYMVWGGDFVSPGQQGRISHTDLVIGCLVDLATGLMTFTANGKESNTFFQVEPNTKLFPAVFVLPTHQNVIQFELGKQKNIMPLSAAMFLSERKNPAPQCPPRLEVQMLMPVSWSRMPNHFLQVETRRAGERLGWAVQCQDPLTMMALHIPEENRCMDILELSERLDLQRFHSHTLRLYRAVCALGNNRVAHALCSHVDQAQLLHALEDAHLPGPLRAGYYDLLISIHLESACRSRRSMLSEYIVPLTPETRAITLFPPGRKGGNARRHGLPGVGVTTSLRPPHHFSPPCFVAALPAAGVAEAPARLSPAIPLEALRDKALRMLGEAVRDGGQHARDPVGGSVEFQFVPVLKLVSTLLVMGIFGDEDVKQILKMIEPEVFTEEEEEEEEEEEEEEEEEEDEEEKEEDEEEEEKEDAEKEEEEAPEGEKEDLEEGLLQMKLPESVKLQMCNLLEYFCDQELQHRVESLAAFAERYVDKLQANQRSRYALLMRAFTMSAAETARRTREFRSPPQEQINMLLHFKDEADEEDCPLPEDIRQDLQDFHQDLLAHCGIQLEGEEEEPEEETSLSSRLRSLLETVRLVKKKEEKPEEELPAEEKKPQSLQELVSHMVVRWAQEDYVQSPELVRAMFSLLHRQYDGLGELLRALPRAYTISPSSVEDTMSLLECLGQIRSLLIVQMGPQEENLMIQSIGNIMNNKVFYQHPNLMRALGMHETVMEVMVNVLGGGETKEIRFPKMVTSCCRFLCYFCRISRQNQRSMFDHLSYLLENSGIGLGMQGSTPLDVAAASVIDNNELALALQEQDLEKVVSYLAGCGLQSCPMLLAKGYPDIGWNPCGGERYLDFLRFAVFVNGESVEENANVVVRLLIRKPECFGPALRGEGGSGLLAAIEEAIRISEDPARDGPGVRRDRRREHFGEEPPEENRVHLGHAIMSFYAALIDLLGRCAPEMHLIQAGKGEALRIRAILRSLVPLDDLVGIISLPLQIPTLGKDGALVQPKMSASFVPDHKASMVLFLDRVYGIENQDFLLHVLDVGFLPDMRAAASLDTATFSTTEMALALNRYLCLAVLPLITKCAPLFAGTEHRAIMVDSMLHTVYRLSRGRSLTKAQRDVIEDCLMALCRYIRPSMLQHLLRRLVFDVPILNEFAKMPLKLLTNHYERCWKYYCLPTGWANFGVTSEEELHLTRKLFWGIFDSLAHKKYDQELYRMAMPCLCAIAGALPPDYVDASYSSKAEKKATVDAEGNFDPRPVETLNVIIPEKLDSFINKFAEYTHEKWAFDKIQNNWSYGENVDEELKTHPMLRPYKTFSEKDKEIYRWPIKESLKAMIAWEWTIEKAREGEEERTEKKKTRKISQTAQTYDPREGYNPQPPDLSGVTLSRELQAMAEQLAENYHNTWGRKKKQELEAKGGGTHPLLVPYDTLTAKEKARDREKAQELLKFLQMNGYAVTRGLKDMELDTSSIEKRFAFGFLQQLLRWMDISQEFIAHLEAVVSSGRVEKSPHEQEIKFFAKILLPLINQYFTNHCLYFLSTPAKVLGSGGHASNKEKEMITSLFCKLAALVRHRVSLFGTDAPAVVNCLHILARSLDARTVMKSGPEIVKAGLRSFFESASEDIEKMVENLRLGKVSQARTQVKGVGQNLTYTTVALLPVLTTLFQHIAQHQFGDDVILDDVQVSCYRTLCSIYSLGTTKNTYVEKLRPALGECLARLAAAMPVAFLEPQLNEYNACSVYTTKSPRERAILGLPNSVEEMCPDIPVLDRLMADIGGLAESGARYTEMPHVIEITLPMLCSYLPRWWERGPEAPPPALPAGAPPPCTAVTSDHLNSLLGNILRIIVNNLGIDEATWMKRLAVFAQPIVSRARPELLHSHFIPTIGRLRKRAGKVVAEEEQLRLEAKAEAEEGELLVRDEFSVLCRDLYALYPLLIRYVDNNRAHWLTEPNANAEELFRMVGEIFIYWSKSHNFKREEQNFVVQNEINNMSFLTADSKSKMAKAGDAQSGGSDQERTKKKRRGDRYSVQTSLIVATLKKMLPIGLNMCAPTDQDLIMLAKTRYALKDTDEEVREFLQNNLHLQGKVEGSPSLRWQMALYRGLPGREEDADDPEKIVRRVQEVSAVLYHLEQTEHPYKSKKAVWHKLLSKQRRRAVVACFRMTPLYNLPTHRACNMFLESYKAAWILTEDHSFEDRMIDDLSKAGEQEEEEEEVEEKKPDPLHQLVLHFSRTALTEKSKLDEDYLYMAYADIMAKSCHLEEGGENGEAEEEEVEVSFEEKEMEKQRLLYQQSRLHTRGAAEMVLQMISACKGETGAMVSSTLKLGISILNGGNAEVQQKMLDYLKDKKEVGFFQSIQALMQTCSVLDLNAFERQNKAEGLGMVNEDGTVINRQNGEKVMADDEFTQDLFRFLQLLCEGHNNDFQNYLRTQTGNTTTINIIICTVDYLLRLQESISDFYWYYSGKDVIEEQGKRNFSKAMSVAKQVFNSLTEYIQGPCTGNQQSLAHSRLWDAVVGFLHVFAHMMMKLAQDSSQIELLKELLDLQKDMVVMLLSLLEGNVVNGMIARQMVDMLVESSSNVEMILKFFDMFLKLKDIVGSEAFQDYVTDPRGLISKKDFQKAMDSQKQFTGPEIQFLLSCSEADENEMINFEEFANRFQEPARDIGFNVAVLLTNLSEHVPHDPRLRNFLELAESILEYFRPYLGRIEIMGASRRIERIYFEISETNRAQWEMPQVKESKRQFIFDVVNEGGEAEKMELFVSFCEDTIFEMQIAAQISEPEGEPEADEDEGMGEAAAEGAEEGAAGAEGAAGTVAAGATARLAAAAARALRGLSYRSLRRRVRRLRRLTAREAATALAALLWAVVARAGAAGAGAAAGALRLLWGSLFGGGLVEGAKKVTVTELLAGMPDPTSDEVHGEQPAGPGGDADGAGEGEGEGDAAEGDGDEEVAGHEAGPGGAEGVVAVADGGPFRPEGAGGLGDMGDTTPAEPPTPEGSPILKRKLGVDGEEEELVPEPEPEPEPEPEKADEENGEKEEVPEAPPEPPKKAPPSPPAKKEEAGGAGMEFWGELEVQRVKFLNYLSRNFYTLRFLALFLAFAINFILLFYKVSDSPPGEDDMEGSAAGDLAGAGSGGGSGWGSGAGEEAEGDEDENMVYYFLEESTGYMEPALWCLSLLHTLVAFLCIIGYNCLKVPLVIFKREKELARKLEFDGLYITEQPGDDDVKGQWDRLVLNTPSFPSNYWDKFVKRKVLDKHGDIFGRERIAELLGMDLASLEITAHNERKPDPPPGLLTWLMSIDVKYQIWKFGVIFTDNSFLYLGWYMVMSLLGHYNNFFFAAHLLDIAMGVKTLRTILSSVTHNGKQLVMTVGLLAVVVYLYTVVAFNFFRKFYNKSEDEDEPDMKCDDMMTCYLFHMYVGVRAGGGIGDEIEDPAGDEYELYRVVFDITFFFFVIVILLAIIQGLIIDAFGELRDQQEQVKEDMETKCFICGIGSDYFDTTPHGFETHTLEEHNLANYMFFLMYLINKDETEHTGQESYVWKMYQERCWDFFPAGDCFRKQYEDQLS
T1 sequence (P11716 whole entry): as above

“C-terminal domain of canine junctin (amino acids 46–210), His6-tagged (domain or fragment)”: the open probability (Po) of purified RyR1 channels in lipid bilayers, 213 nM Cjun in the luminal solution, relative to control in test [1] is 0.68 of control.
Consider “full-length junctin isolated from rabbit skeletal muscle (natural protein)”, for which the open probability of purified RyR1 channels in lipid bilayers, 213 nM FLjun in the luminal solution, increase over control in test [2] turned out to be 1.9 fold.

B1: Cjun KEKE motif peptide (canine), residues 84–105, biotinylated (peptide)
peptide: Biotin-KRKTKAKVKELTKEELKKEKEK
notes: junctin, canine, KEKE motif, residues 84-105; also called canine KEKE peptide; KEKE peptide; source: synthetic peptide
Regarding B1, in test [3], the binding result is listed as “binds”.

B2: Njun peptide, N-terminal cytoplasmic domain of junctin (residues 1–22), biotinylated (peptide)
peptide: Biotin-MAEETKHGGHKNGRKGGLSQSS
notes: junctin, N-terminal cytoplasmic domain, residues 1-22; also called biotinylated Njun; junctin cytoplasmic domain; source: synthetic peptide
For B2, the “open probability of purified RyR1 channels in lipid bilayers, 213 nM Njun in the cytoplasmic solution, increase over control” value in test [4] stood at 5 fold. Also, in test [5], the binding result is on record as “binds”.
